Here are results for six molecules from patent publication US20220177604A1.

Positions count from the first letter of the chain named.

Assay [1] has as its target human immunoglobulin E (hIgE) (human) (UniProt P01854). Put plainly: competition ELISA, hIgE to coated hFcεRIα, pH 7.4. On the technique in general: In an ELISA, binding on a coated surface is turned into a signal by an enzyme label.
Assay [2] shares this target. Put plainly: flow cytometry: inhibition of human IgE binding to hFcεRIα+ bone-marrow-derived mast cells, residual IgE staining (MFI); table head on the sheet reads EC50, the text calls the values IC50; no unit in the table, x axis in µg/ml. (Flow cytometry measures light scatter and fluorescence of single cells or particles in a stream.)
The target is the same in assay [3]. The assay is described as follows: SPR competition, hIgE over hFcεRIα chip, pH 6 (text: pH 5.5).
Assay [4] has the same target. Put plainly: SPR competition, hIgE over hFcεRIα chip, pH 7.4.
In assay [5] the target is human IgE pre-bound on human basophils (human) (UniProt P01854). Put plainly: cell-based or functional assay.
The target of assay [6] is human immunoglobulin E (hIgE) (human) (UniProt P01854). The assay is described as follows: competition ELISA, hIgE to coated hFcεRIα, pH 6.
For assay [7] the target is unchanged. The assay is described as follows: SPR competition, hIgE over hFcεRIα chip, pH 5.5.
The target is the same in assay [8]. Put plainly: SPR competition.
Assay [9] has the same target. Put plainly: SPR competition, hIgE over hFcεRIα chip, pH 7.4. The source holds these as a separate data set.
Assay [10] has the same target. The assay is described as follows: flow cytometry: inhibition of human IgE binding to hFcεRIα+ bone-marrow-derived mast cells, residual IgE staining (MFI); unit inferred, x axis in µg/ml.
The target is the same in assay [11]. The assay is described as follows: SPR competition, hIgE + mAb over hFcεRIα chip, pH 7.4.
Assay [12] has the same target. Put plainly: SPR competition, hIgE + mAb over hFcεRIα chip, pH 6 (text: pH 5.5).
For assay [13] the target is unchanged. Put plainly: competition ELISA.
Assay [14] shares this target. Put plainly: competition ELISA, biotin-hIgE to coated hFcεRIα, pH 6.
Assay [15] shares this target. The assay is described as follows: competition ELISA, biotin-hIgE to coated hFcεRIα, pH 7.4.

human immunoglobulin E (hIgE) (human), sequence (P01854 whole entry): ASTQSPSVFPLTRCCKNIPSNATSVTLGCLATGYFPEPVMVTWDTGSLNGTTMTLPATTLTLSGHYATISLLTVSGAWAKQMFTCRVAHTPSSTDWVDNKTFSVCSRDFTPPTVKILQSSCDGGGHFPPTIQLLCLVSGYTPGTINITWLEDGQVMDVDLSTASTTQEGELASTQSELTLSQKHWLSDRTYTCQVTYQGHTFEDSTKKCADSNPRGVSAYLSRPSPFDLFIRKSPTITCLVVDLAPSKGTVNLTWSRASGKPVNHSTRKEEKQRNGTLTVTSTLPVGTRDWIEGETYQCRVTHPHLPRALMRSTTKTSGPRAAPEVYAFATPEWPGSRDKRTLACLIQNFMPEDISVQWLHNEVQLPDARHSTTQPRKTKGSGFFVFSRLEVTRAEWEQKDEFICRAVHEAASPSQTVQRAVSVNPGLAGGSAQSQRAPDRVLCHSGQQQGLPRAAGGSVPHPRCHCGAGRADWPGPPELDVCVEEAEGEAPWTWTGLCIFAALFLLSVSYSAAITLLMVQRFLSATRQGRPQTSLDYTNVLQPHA
human IgE pre-bound on human basophils (human), sequence (P01854 whole entry, chain 1 of 2): as the sequence (P01854 whole entry) above
human IgE pre-bound on human basophils (human), sequence (P12319 26-257, chain 2 of 2, further chain): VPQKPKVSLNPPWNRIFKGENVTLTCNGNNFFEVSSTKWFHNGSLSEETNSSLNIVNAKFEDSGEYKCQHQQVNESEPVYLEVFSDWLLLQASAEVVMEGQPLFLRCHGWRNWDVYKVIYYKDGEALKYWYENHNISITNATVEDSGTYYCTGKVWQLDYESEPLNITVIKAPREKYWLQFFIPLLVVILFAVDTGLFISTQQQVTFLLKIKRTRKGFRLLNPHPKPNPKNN

B1: 18E2His2-hIgG1-ABDEG (antibody, V domains shown)
VH: QLQLVESGGGLVQPGGSLRLSCAASGFTFSSYVMHWVRQAPGKGLEWVSSIYHDGSHTYYADFVKGRFTISRDNAKNTLYLQMNSLKSEDTAVYYCASGTSYSGSYYYTDPFFGSWGQGTQVTVSS
VL: NFMLTQPSALSVTLGQTARITCQGDRLGSRYIHWYQQKPPQAPVLVIHDDDRRPSGIPERFSGSSSGGTATLTISGAQAEDDGDYYCQSADSSGNPVFGGGTHLTVL
What is called IC50 is the point on the concentration scale where inhibition reaches its midpoint. As to B1, the IC50 in assay [1] is 1.49 µg/mL; in assay [2], 208 µg/mL; in [3], 7320 µg/mL; in assay [4], 5.8 µg/mL; in [6], 26.6 µg/mL. For the same molecule, the % CD63+ basophils at 20 µg/mL in assay [5] came out at 4%. The molecule further came in with a % CD63+ basophils at 100 µg/mL in [5] of 4.3%. The % of activated basophils (CCR3+CD63+) in assay [5] worked out at 4%.

B2: 18E2His2-hIgG1-WT (antibody, V domains shown)
VH: B1 VH
VL: B1 VL
Turning to B2, the half-maximal inhibitory concentration (IC50) was 2.48 µg/mL in assay [1]; 25.7 µg/mL in [2]; 9.86 µg/mL in assay [7]; 6310 µg/mL in assay [3]; 6 µg/mL in [4]; 1.56 µg/mL in assay [9]. In assay [6], this molecule showed an IC50 of 77.2 µg/mL. Also, the fold reduction of affinity at pH 7.4 against the WT clone in assay [8] was 2.5 fold. Besides, the ratio between IC50 at pH5.5 and pH 7.4 in assay [8] worked out at 6.3. Also, in assay [5], the % of activated basophils (CCR3+CD63+) was determined as 5%.

B3: 18B9His-hIgG1-WT (antibody, V domains shown)
VH: QVQLVESGGGLVQPGGSLRLSCAASGFTFSSYVMSWVRQAPGKGLEWVSSIYSDGSHTYYADSVKGRFTISRDNAKNTLYLQMNSLKSEDTAVYYCAKNLEHYSGSYYYTDPRYDYWGQGTQVTVSS
VL: SSALTQPSALSVTLGQTAKITCQGGSLGSSYVHWYQQKPGQAPVLVIHDGDSRPSGIPERFSGSSSGGTATLTISGAQAEDEDDYYCQSADSSGNAVFGGGTHLTVL
As to B3, the IC50 in assay [1] was 0.19 µg/mL; in [7], 4.06 µg/mL; in [3], 58.5 µg/mL; in assay [4], 2.7 µg/mL; in [9] it was 0.749 µg/mL; in [10] it was 3.89 µg/mL. Further, in assay [6], the IC50 is 3.02 µg/mL. The ratio between IC50 at pH5.5 and pH 7.4 in assay [8] stood at 5.4. In assay [5], this molecule showed a % CD63+ basophils at 20 µg/mL of 12.6%. Moreover, in [5], the % CD63+ basophils at 100 µg/mL turned out to be 37%. Also, in assay [5], the % of activated basophils (CCR3+CD63+) stood at 32%. The molecule further had an SI (Stimulation Index) at 20 µg/mL in assay [5] of 5.48. The molecule also yielded an SI (Stimulation Index) at 100 µg/mL in [5] of 16.1.

B4: 13E4-hIgG1-ABDEG (antibody, V domains shown)
VH: B1 VH with Q1E, H35S
VL: B3 VL with S1H, L4V, S30N, V32A, H33Y, H48Y, G50D, D83G, S93N
Turning to B4, the IC50 was determined as 0.0065 µg/mL in assay [1]; 1.36 µg/mL in [2]; 3.2 µg/mL in assay [3]; 3 µg/mL in assay [4]; 0.0106 µg/mL in assay [6]. The same molecule returned a % CD63+ basophils at 20 µg/mL in assay [5] of 61.3%. The molecule further came in with a % CD63+ basophils at 100 µg/mL in assay [5] of 68.6%. This molecule showed a % of activated basophils (CCR3+CD63+) in assay [5] of 17%.

B5: 18B9His-hIgG1-ABDEG (antibody, V domains shown)
VH: B3 VH
VL: B3 VL
With B5, the IC50 in [1] was 0.13 µg/mL; in assay [3] it was 52.9 µg/mL; in assay [4] it was 2.9 µg/mL; in assay [10], 4.16 µg/mL; in assay [6] it was 2.55 µg/mL. For the same molecule, in assay [5], the % of activated basophils (CCR3+CD63+) worked out at 29%.

B6: 13E4-hIgG1-WT (antibody, V domains shown)
VH: B1 VH with Q1E, H35S
VL: B3 VL with S1H, L4V, S30N, V32A, H33Y, H48Y, G50D, D83G, S93N
With B6, the IC50 in [1] came out at 0.00681 µg/mL; in assay [2], 1.44 µg/mL; in [11], 1.62 nM; in assay [12], 1.54 nM; in assay [3], 2.5 µg/mL; in assay [4], 2.3 µg/mL. Also, the IC50 in [6] is 0.0114 µg/mL; in assay [14] it was 12.9 nM; in assay [15], 10.3 nM. The Ratio pH 6/7.4 (IC50) in [8] was 1; in assay [13], 1.2. This molecule also came in with a % of activated basophils (CCR3+CD63+) in assay [5] of 18%.
